This note sets out measurements from article PMC8519931.

For this assay, the target named is GFP-LC3B (UniProt Q9GZQ8). Kind of assay: co-IP; GFP-LC3 captured on GFP-Trap magnetic beads from HEK-293 T lysates (NP-40 IP lysis buffer: 50 mM Tris-HCl pH 7.5, 150 mM NaCl, 1 mM EDTA, 1% IGEPAL), 1 h at 4 °C; HA-BNIP3 forms detected by blot; cells with or without 100 nM bafilomycin A1 and with or without exogenous FLAG-ULK1.

Sequence of HA-BNIP3 (WT) (natural protein) (Q12983 whole entry): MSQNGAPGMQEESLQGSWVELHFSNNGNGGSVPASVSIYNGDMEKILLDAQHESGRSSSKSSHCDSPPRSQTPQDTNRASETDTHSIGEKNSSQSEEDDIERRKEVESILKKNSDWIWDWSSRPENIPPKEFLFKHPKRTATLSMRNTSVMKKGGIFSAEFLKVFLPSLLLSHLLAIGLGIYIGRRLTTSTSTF

On to HA-BNIP3 (WT) (natural protein), for which the fold increase in binding with 100 nM bafilomycin A1 against untreated cells turned out to be 2.5 fold.

Turning to HA-BNIP3 S17E (natural protein), the fold increase in binding with 100 nM bafilomycin A1 against untreated cells was found to be 9 fold.
